We go through 53 substances from patent publication US10738094B2, “Peptides and combination of peptides for use in immunotherapy against ovarian cancer and other cancers” (immatics biotechnologies GmbH, priority 2015, dated 2020).

For the assay, the target named is HLA-A*02:01 (Homo sapiens, UniProt P04439, D140Y/D185E/D98H/E176V/E277Q/G131W/G231S/I119V/I121R/I166T/I218V/L300P/L318F/N151K/N90K/P208A/P217A/Q86G/Q94H/R138H/R169H/T345S). The experiment in a line: MHC binding assay (UV-ligand exchange, beta2m ELISA). To be noted: binding to HLA-A*02:01 ranged by peptide exchange yield (UV-ligand exchange, β2m ELISA). An excerpt:
Candidate peptides for T cell based therapies according to the present invention were further tested for their MHC binding capacity (affinity). The individual peptide-MHC complexes were produced by UV-ligand exchange, where a UV-sensitive peptide is cleaved upon UV-irradiation, and exchanged with the peptide of interest as analyzed. Only peptide candidates that can effectively bind and stabilize the peptide-receptive MHC molecules prevent dissociation of the MHC complexes. To determine the yield of the exchange reaction, an ELISA was performed based on the detection of the light chain (β2m) of stabilized MHC complexes. The assay was performed as generally described in Rodenko et al. (Rodenko et al., 2006).
96 well MAXISorp plates (NUNC) were coated over night with 2 ug/ml streptavidin in PBS at room temperature, washed 4× and blocked for 1 h at 37° C. in 2% BSA containing blocking buffer. […] Peptide-MHC monomers of the UV-exchange reaction were diluted 100 fold in blocking buffer. Samples were incubated for 1 h at 37° C., washed four times, incubated with 2 ug/ml HRP conjugated anti-β2m for 1 h at 37° C., washed again and detected with TMB solution that is stopped with […]. Absorption was measured at 450 nm. Candidate peptides that show a high exchange yield (preferably higher than 50%, most preferred higher than 75%) are generally preferred for a generation and production of antibodies or fragments thereof, and/or T cell receptors or fragments thereof, as they show sufficient avidity to the MHC molecules and prevent dissociation of the MHC complexes.
(In general: An ELISA detects its analyte on a solid surface through an enzyme-linked reagent.)
Turning to “601 (SAFPFPVTV; listed as Homo sapiens) [compound 601]”, the Peptide exchange result is ““+++” (≥50 = +++)”.

Regarding “285 (QLLHVGVTV; listed as Homo sapiens) [compound 285]”, the Peptide exchange entry is recorded as ““+++” (≥50 = +++)”. As for “541 (SMLEPVPEL; listed as Homo sapiens) [compound 541]”, the entry is ““+++” (≥50 = +++)”; as for “553 (SLLNQDLHWSL; listed as Homo sapiens) [compound 553]”, ““++++” (≥75% = ++++)”; as for “453 (KLLEATSAV; listed as Homo sapiens) [compound 453]”, ““++” (≥20% = ++)”. For “50 (SLSELEALM; listed as Homo sapiens) [compound 50]” the value was ““+++” (≥50 = +++)”; for “364 (LLQNEQFEL; listed as Homo sapiens) [compound 364]”, ““+++” (≥50 = +++)”. On to “325 (FIMPATVADATAV; listed as Homo sapiens) [compound 325]”, for which the Peptide exchange result was ““+++” (≥50 = +++)”. On to “144 (YIMEPSIFNTL; listed as Homo sapiens) [compound 144]”, for which the Peptide exchange result was ““+++” (≥50 = +++)”. On to “477 (ALLPASGQIAL; listed as Homo sapiens) [compound 477]”, for which the Peptide exchange entry is listed as ““+++” (≥50 = +++)”. Take “465 (QLCDLNAEL; listed as Homo sapiens) [compound 465]”: the Peptide exchange entry is recorded as ““+++” (≥50 = +++)”.

Turning to “29 (KMLGIPISNILMV; listed as Homo sapiens) [compound 29]”, the Peptide exchange result is listed as ““+++” (≥50 = +++)”. In the case of “68 (SLMELPRGLFL; listed as Homo sapiens) [compound 68]”, the Peptide exchange entry was ““++++” (≥75% = ++++)”. Take “594 (IMLKGDNITL; listed as Homo sapiens) [compound 594]”: the Peptide exchange result is listed as ““+++” (≥50 = +++)”. Consider “342 (HIYDKVMTV; listed as Homo sapiens) [compound 342]”, for which the Peptide exchange result is listed as ““+++” (≥50 = +++)”. Take “586 (KLKPGDLVGV; listed as Homo sapiens) [compound 586]”: the Peptide exchange entry is on record as ““+++” (≥50 = +++)”. Turning to “162 (YQQAQVPSV; listed as Homo sapiens) [compound 162]”, the Peptide exchange entry was ““+++” (≥50 = +++)”.

Turning to “537 (TLAPGEVLRSV; listed as Homo sapiens) [compound 537]”, the Peptide exchange entry is listed as ““+++” (≥50 = +++)”.

“273 (NLFQSVREV; listed as Homo sapiens) [compound 273]”: the Peptide exchange result was ““++” (≥20% = ++)”. Turning to “549 (AMLENASDIKL; listed as Homo sapiens) [compound 549]”, the Peptide exchange result was ““+++” (≥50 = +++)”. For the substance “471 (YLYNNMIAKI; listed as Homo sapiens) [compound 471]”, the Peptide exchange result is recorded as ““+++” (≥50 = +++)”. As for “132 (LLVEQPPLAGV; listed as Homo sapiens) [compound 132]”, the entry is ““+++” (≥50 = +++)”. Regarding “355 (SIQQSIERLLV; listed as Homo sapiens) [compound 355]”, the Peptide exchange result was ““++” (≥20% = ++)”.

For “380 (TLIEDEIATI; listed as Homo sapiens) [compound 380]”, the Peptide exchange entry was ““++” (≥20% = ++)”. Regarding “608 (SLLSVSHAL; listed as Homo sapiens) [compound 608]”, the Peptide exchange entry is ““+++” (≥50 = +++)”. In the case of “160 (FLFDEEIEQI; listed as Homo sapiens) [compound 160]”, the Peptide exchange entry is on record as ““+++” (≥50 = +++)”. Consider “264 (SLQEQLHSV; listed as Homo sapiens) [compound 264]”, for which the Peptide exchange result is listed as ““+++” (≥50 = +++)”. As to “563 (WLLPYNGVTV; listed as Homo sapiens) [compound 563]”, the Peptide exchange result is given as ““+++” (≥50 = +++)”. “454 (KLPPPPPQA; listed as Homo sapiens) [compound 454]”: the Peptide exchange result is on record as ““+++” (≥50 = +++)”. Take “308 (SQYSGQLHEV; listed as Homo sapiens) [compound 308]”: the Peptide exchange result is recorded as ““+++” (≥50 = +++)”. As for “71 (GILARIASV; listed as Homo sapiens) [compound 71]”, the Peptide exchange result was ““+++” (≥50 = +++)”.

Regarding “528 (SVAEGRALMSV; listed as Homo sapiens) [compound 528]”, the Peptide exchange entry is ““+++” (≥50 = +++)”. For “318 (GLINTGVLSV; listed as Homo sapiens) [compound 318]” the value was ““++” (≥20% = ++)”; for “468 (YLRSVGDGETV; listed as Homo sapiens) [compound 468]”, ““+++” (≥50 = +++)”.

In the case of “277 (LLPPLESLATV; listed as Homo sapiens) [compound 277]”, the Peptide exchange entry is listed as ““++” (≥20% = ++)”. As to “572 (ALADLIEKELSV; listed as Homo sapiens) [compound 572]”, the Peptide exchange result is reported as ““+++” (≥50 = +++)”. As to “392 (ALLHPQGFEV; listed as Homo sapiens) [compound 392]”, the Peptide exchange result is on record as ““++” (≥20% = ++)”.

On to “45 (SLWQDIPDV; listed as Homo sapiens) [compound 45]”, for which the Peptide exchange result is on record as ““+++” (≥50 = +++)”.

“584 (ALAEVAAMENV; listed as Homo sapiens) [compound 584]”: the Peptide exchange entry is ““+++” (≥50 = +++)”. As for “253 (GLDAATATV; listed as Homo sapiens) [compound 253]”, the Peptide exchange entry was ““++” (≥20% = ++)”. “597 (KLLEGQVIQL; listed as Homo sapiens) [compound 597]”: the Peptide exchange entry is reported as ““+++” (≥50 = +++)”. Turning to “519 (GLLHLTLLL; listed as Homo sapiens) [compound 519]”, the Peptide exchange entry is ““+++” (≥50 = +++)”.

As for “341 (SQIALNEKLVNL; listed as Homo sapiens) [compound 341]”, the Peptide exchange result is ““+++” (≥50 = +++)”. As for “148 (ALNPEIVSV; listed as Homo sapiens) [compound 148]”, the entry is ““++” (≥20% = ++)”.

Regarding “272 (ALGNTVPAV; listed as Homo sapiens) [compound 272]”, the Peptide exchange result is recorded as ““+++” (≥50 = +++)”. “386 (ILFRYPLTI; listed as Homo sapiens) [compound 386]”: the Peptide exchange entry is given as ““+++” (≥50 = +++)”. With “316 (ILLERLWYV; listed as Homo sapiens) [compound 316]”, the Peptide exchange entry is reported as ““+++” (≥50 = +++)”. For “161 (ALLEGVNTV; listed as Homo sapiens) [compound 161]” the value was ““+++” (≥50 = +++)”. “304 (MTLGQIYYL; listed as Homo sapiens) [compound 304]”: the Peptide exchange entry is recorded as ““+++” (≥50 = +++)”. With “226 (MLYVVPIYL; listed as Homo sapiens) [compound 226]”, the Peptide exchange entry is ““++” (≥20% = ++)”.

Consider “173 (LLDSASAGLYL; listed as Homo sapiens) [compound 173]”, for which the Peptide exchange entry is ““+++” (≥50 = +++)”. In the case of “464 (ALNDCIYSV; listed as Homo sapiens) [compound 464]”, the Peptide exchange result is ““+++” (≥50 = +++)”.

For “570 (ALANQIPTV; listed as Homo sapiens) [compound 570]”, the Peptide exchange result is listed as ““++” (≥20% = ++)”.
